For the test, the system named is template containing an abasic site. In words: Translesion replication assay (primer extension), abasic site. In kind it is biochemical. The following applies: gel-extension assay, 60° C. Here is the method:
Template primers 22 (undamaged) or 23 (containing a synthetic abasic site) were synthesized by Lofstrand Laboratories (Gaithersburg, Md.). Template primer 24 (containing a single cis-syn thymine dimer), was synthesized as described (34). Primer 25 was ^32P-labeled and annealed to one of the three templates 22, 23, 24 (at a primer template ratio of molar 1:1.5) and extended in 40 mM Tris.HCl at pH 8.0, 5 mM MgCl2, 100 μM of each dNTP, 10 mM DTT, 250 μg/ml BSA, 2.5% glycerol, 10 nM primer-template DNA and 0.1 Unit of polymerase at 60° C. for various times.
Primer extension assays were essentially as described in (Ghadessy et al., 2004). Briefly, undamaged oligonucleotides and a 51mer containing a synthetic abasic site were synthesized by Lofstrand Laboratories (Gaithersburg, Md.) using standard techniques and were gel purified prior to use. A 20mer primer (LES—20 P) with the sequence 5′-[…]-3′ (SEQ ID NO: 99) was 5′-labeled with [^32P]ATP (5000 Ci/mmole; 1 Ci=37 GBq) (Pharmacia) using T4 polynucleotide kinase (Invitrogen, Carlsbad Calif.). Radiolabeled primer-template DNAs were prepared by annealing the 5′[^32P] labeled 20mer primer to one of the two following 51mer templates (at a primer template ratio of molar 1:1.5). 1) undamaged DNA (UNDT51T); 5′-AGCTACCATGCCTGCACGAATTCGGCATCCGTCGCGACCACGGTCGCAGCG-3′ (SEQ ID NO: 100); 2) an oligo (LABA51T) containing a synthetic abasic site (indicated as an X in bold font); 5′-AGCTACCATGCCTGCACGACA XCG GCATCCGTCGCGACCACGGTCGCAGCG-3′ (SEQ ID NO: 101). Standard replication reactions of 10 contained 40 mM Tris.HCl at pH 8.0, 5 mM MgCl2, 100 μM of each ultrapure dNTP (Amersham Pharmacia Biotech, NJ), 10 mM DTT, 250 μg/ml BSA, 2.5% glycerol, 10 nM 5′[32P] primer-template DNA and 0.1 Unit of polymerase. After incubation at 60° C. for various times reactions were terminated by the addition of 10 μl of 95% formamide/10 mM EDTA and the samples heated to 100° C. for 5 min. Reaction mixtures (5 μl) were subjected to 20% polyacrylamide/7 M Urea gel electrophoresis and replication products visualized by PhosphorImager analysis.

“Also recorded” adds a separate entry of the source.

B1: 3A10: third round clone, abasic site bypass; SEQ ID NO: 86 (protein)
chain: MAMLPLFEPKGRVLLVDGHHLAYRTFFALKGLTTSRGEPVQVVYGFAKSLLKALKEDGYKAVFVVFDAKAPSFRHKAYEAYRAGRAPTPQDFPRQLALIKELVDLLGFTRLEVPGYEADDVLATLAKKAEKEGYEVRILTADRGLYQLVSDRVAVLHPEGHLITPEWLWEKYGLRPEQWVDFRALVGDPSDNLPGVKGIGEKTALKLLKEWGSLENLLKNLDRVKPENVREKIKAHLEDLRLSLELSRVRTDLPLEVDLAQGREPDREGLRAFLERLEFGSLLHEFGLLESPKALEEAPWPPPEGAFVGFVLSRKEPMWADLLALAAARGGRVHQAPEPYKALRDLKEARGLLAKDLSVLALREGLGLPPGDDPMLLAYLLDPSNTTPEGVARRYGGEWTEEAGERAALSERLFANLWGRLEGEERLLWLYREVERPLSAVLAHMETTGVRLDVAYLRALSLEVAEEIARLEAEVFRLAGRPFNLNSRDQLERVLFDELGLPAIGKTEKTGKRSTSAAVLEALREAHPIVEKILQYRELTKLKSTYIDPLPDLIHPRTGRLHTRFNQTATATGRLSSSDPNLQNIPVRTPLGQRIRRAFIAEEGWLLVVLDYSQMELRVLAHLSGDENLIRVFQEGKDIHTQTASWMFGVPPEAVDPLMRRAAKTVNFGVLYGMSAHRLSQELSIPYEEAVAFIERYFQSFPKVRAWIEKTLEEGRRRGYVETLFGRRRYVPDLNARMKSVRGAAERMAFNMPVQGTAADLMKLAMVKLFPRLREMGARMLLQVHDELLLEAPQARAEEVAALAKEAMEKAYPLAVPLEVEVGIGEDWLSAKE
modifications: Mutant Taq polymerase
In the case of B1, the “abasic site bypass in primer extension” value (listed as A10) is “clearly better at both abasic site and CPD extension and bypass than both wild type and M1; also recorded: clearly display better abasic site bypass than either wtTaq or M1”.

B2: 3D1: third round clone, four mismatch extension; SEQ ID NO: 98 (protein)
chain: MAMLPLFEPKGRVLLVDGHHLAYRTFFALKGPTTSRGEPVQVVYGFAKSLLKALKEDGYKAVFVVFDAKAPSFRHKAYEAYRAGRAPTPEDFPRQLALIKELVDLLGFTRLEVPGYEADDVLATLAKKAEKEGYEVRILTADRGLYQLVSDRVAVLHPEGHLITPEWLWEKYGLRPEQWVDFRALVGDPSDNLPGVKGIGEKTALKLLKEWGSLENLLKNLDRVKPENVREKIKAHLEDLRLSLELSRVRTDLPLEVDLAQRREPDREGLRAFLERLEFGSLFHEFGLLESPKALEEAPWPPPEGAFVGFVLSRKEPMWADLLALAAARGGRVHRAPEPYKALRDLKEARGLLAKDLSVLALREGLGLPPGDDPMLLAYLLDPSNTTPEGVARRYGGEWTEEAGERAALSERLFANLWGRLEGEERLLWLYREVERPLSAVLAHMEATGVRLDVAYLRALSLEVAEEIARLEAEVFRLAGHPFNLNSRDQLEMVLFDELRLPALGKTQKTGKRSTSAAVLEALREAHPIVEKILQYRELTKLKSTYIDPLSDLIHPRTGRLHTRFNQTATATGRLSSSDPNLQNIPVRTPLGQRIRRAFIAEEGWLLVVLDYSQIELRVLAHLSGDENLIRVFQEGRDIHTETASWMFGVPREAVDPLMRRAAKTINFGVLYGMSAHRLSQELAIPYEEAQAFIERYFQSFPKVRAWIEKTLEEGRRRGYVETLFGRRRYVPDLEARVKSVREAAERMAFNMPVQGTAADLMKLAMVKLFPRLGETGARMLLQVHDELVLEAPKERAEAVARLAKEAMEGVYPLAVPLEVEVGIGEDWLSAKG
modifications: Mutant Taq polymerase
In the case of B2, the “abasic site bypass in primer extension” value was “clearly display better abasic site bypass than either wtTaq or M1”.
